“Also recorded” adds a separate entry of the source.
Legend:
[1] = system: blood brain barrier of mice; assay: BBB permeability, Texas red dye leakage by widefield imaging; assay type: in vivo, mouse; settings: mice injected with RGMa plus the agent
Method: Mice were treated with RGMa (70 ug), RGMa (70 ug)+RGMc (70 ug), or Vehicle (1% BSA) 18 h prior to widefield imaging (100-300 ms exposure) prior to and following intravenous injection of Texas Red dye (0.5 mg) over time. […] (B) Quantification of the leakage of Texas Red dye (measured as the number of leakage sites/mm^2).
BBB integrity was assessed in mice treated with PBS (Vehicle), RGMa, RGMc, RGMa+ immunoglobulin domain of Neogenin (4Ig). Widefield imaging was then carried out under a Olympus microscope (BX6 1WI) prior to and following the injection of Texas red dye (100 uL, I.V., 5 mg/ml) using 100-300 ms exposure. Recording was performed from 0 min to 35 min following injection. Texas dye leakage was also assessed in RGMc knockout (KO) and wild type (WT) mice. The leakage of Texas-red dye was quantified by a blind experimenter measuring the number of leakage sites/mm^2. (A) Representative images of Texas red dye: PBS (Vehicle), RGMa, RGMa+RGMc and RGMa+4Ig (immunoglobulin domain of Neogenin). Quantification of the leakage of Texas Red dye in animals treated with (B) PBS (Vehicle), RGMa or RGMa+RGMc or in RGMc KO and WT mice or (C) PBS (Vehicle), RGMa, RGMa+RGMc or RGMa+4Ig.
Mice injected with BSA, RGMc, RGMa, or RGMa+RGMc. […] Leakage of Texas red dye was quantified by a blind experimenter measuring the number of leakage sites/mm^2. […]

[2] = biological target: T1, Neogenin (Homo sapiens, UniProt Q92859); assay: In vitro competition binding assay (AP-tagged proteins); settings: competition assay, FIG. 6C
T1 construct: His-tagged proteins (2.5 μg/mL of extracellular-Neogenin or sRGMa or sRGMc) were then coated onto each well; His tag (coated format); Alkaline phosphatase (AP) fusion (solution format, Ec-Neogenin-AP); made in house
T1 sequence (Q92859 34-1105 limits assumed): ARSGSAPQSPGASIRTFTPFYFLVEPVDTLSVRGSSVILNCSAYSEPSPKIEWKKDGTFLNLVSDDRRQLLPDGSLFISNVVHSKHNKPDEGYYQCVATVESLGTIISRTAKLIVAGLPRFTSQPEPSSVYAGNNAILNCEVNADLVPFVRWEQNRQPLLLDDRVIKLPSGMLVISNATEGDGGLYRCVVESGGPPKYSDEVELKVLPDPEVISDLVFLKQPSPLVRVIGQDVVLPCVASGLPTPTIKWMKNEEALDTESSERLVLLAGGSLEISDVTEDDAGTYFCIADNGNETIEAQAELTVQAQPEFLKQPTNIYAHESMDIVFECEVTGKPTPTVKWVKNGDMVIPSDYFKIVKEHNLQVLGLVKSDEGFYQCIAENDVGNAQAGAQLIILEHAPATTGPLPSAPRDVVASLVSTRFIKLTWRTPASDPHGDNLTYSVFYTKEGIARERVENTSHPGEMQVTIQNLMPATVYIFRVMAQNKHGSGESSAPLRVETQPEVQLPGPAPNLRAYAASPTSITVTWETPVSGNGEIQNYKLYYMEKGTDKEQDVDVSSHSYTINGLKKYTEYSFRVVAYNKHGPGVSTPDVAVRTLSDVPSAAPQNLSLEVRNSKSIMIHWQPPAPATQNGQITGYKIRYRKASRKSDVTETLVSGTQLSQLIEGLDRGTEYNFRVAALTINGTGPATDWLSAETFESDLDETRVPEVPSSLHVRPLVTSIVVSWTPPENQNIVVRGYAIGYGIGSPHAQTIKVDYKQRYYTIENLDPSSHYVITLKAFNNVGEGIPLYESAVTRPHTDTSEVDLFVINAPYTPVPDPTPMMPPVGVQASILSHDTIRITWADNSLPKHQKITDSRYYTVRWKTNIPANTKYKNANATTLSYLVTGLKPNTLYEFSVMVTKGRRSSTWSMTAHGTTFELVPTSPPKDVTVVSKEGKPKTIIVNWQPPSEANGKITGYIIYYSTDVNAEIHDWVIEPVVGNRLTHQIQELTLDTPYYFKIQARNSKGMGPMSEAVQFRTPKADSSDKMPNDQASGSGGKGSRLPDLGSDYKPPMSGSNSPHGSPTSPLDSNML
Method: (C) Binding of Neogenin to bovine serum albumin (Neogenin+BSA), to RGMa (Neogenin+RGMa), and to RGMc (Neogenin+RGMc) in RGMa-AP and in RGMc-AP. Constructs overexpressing His-tagged sRGMa, sRGMc and the extracellular domains of Neogenin (Ec-Neogenin) were coated onto Poly-L-Lysine coated wells. Alkaline Phosphatase (AP)-tagged proteins (EC-Neogenin or RGMa or RGMc) were then added to each well and incubated at 37° C. for 1 h. Each well was washed and equilibrated with AP developing buffer (100 mM NaHCO3, 1 mM MgCl2). The reaction was initiated using AP developing buffer supplemented with p-nitrophenyl phosphate and then stopped following color development by adding 50 μl (0.1M) NaOH. The absorbance of each reaction was measured using a microplate autoreader at 405 nm as described in the Examples. (D) Binding of Neogenin-AP to bovine serum albumin (Neogenin-AP+BSA), to RGMa (Neogenin-AP+RGMa), and to RGMc (Neogenin-AP+RGMc). Competition assay was performed as described in the Examples and above but in which the constructs were reversed.
Using a 96-well microtiter plate (Corning), wells coated with 100 μl (10 μg/mL) of Poly-L-Lysine (Sigma-Aldrich) incubated at 4° C. overnight were then washed 3× with 100 μl of PBST (+0.02% Tween-20). […] The absorbance of each reaction was measured using a microplate autoreader (BioTek EL311 AutoReader) at 405 nm.

[3] = system: MOG(35-55)-pulsed splenocytes of EAE-induced mice; assay: MOG-specific cytokine expression, secretion and proliferation of splenocytes; assay type: in vivo, mouse
Method: Mice were sacrificed on day 10 post-induction and single cells suspension of splenocytes were harvested as described above. Cells (1×10^6) were cultured in 10% FBS RPMI-1640 in the presence of 0 μg/mL, 30 μg/mL, or 100 μg/mL of MOG peptide for 15 h. Cells were then treated with GolgiStop (BD Biosciences) and incubated an additional 3 h and were subsequently stained.
Plates were centrifuged at 1800 rpm for 5 min and the media was then harvested and stored at −80 C until analysis. Cytokine secretion of IL-17a, IL-6, TNF-α, and IFN-γ were assessed using the BD cytometric Bead Array (CBA) (BD Biosciences) according to the manufacturer's guidelines. Splenocyte proliferation was determined using CellTrace™ CFSE Cell Proliferation Kit for flow cytometry (Life Technologies) according to manufacturer's instructions. Briefly, 1×10^6 cells were suspended in warm PBS/0.1% BSA and stained with CFSE solution at a final concentration of 5 μM and incubated at 37° C. for 10 min. The staining was quenched using 5 volumes of ice-cold culture media, incubated for 5 min on ice, centrifuged at 700 rcf for 5 min, washed twice using culture medium, and re-suspended in 10% FBS complete RPMI-1640. Cells were then cultured in 0 μg/mL or 30 μg/mL of MOG(35-55) peptide for 72 h at 37° C., 5% CO2. […] Proliferation was analyzed by flow cytometry following staining in the presence of PI.

B1: sRGMc: truncated form of RGMc with the GPI anchor sequence removed, released as a soluble protein (SEQ ID NOs: 1 and 3) (protein, listed as Homo sapiens)
chain: CKILRCNAEYVSSTLSLRGGGSSGALRGGGGGGRGGGVGSGGLCRALRSYALCTRRTARTCRGDLAFHSAVHGIEDLMIQHNCSRQGPTAPPPPRGPALPGAGSGLPAPDPCDYEGRFSRLHGRPPGFLHCASFGDPHVRSFHHHFHTCRVQGAWPLLDNDFLFVQATSSPMALGANATATRKLTIIFKNMQECIDQKVYQAEVDNLPVAFEDGSINGGDRPGGSSLSIQTANPGNHVEIQAAYIGTTIIIRQTAGQLSFSIKVAEDVAMAFSAEQDLQLCVGGCPPSQRLSRSERNRRGAITIDTARRLCKEGLPVEDAYFHSCVFDVLISGDPNFTVAAQAALEDARAFLPDLEKLH
RGMa-induced disruption of BBB integrity (Texas Red dye leakage) [1]: suppressed; also recorded: ameliorated
interference with RGMa binding to Neogenin [2]: interferes with RGMa for its binding to Neogenin
cytokine secretion (IL17, IFN-γ, TNFα, IL6) of MOG-pulsed splenocytes ([3]; pulsed with MOG for 96 h, ELISA, vs vehicle): does not alter
cytokine profile of splenocytes re-stimulated with MOG(35-55) ([3]; re-stimulated for 18 hrs, vs control mice): no apparent effect

From US10874712B2, “Methods, compounds and compositions for modulating blood brain barrier integrity and re-myelination” (University Health Network, priority 2015, dated 2020)
